Source: the RNAGym collection of RNA variant scans (doi:10.1073/pnas.2313332121)

B1: TPR t1 (parent)
chain: GACCAAUCUGCCCUCAGAGCUCGAGAACAUCUUCGGAUGCAGAGGAGGCAGGCUUCGGUGGCGCGAUAGCGCCAACGUCCUCAACCUCCAAUGCAUCCCACCACAUGAUGAUGCCUGAAGAGCCUUGGUUUUUUG

Variants of: B1
Assay: polymerase ribozyme fitness, log enrichment relative to wild type (log ratio); higher = more active; in vitro selection for triplet polymerase activity
Summary of the method: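 Mutant libraries for each subunit of a heterodimeric triplet polymerase ribozyme were made by PCR and then transcribed. Each library underwent one round of in vitro selection in triplicate: annealing with a biotinylated primer, the partner subunit and triplets, frozen incubation at −7 °C, gel excision of extended constructs, streptavidin-bead capture and RT-PCR. Input and output libraries were Illumina-sequenced, and only genotypes with ≥10 input reads and ≥1 read per output were kept. Fitness is the logarithm, base 2, of genotype enrichment over wild-type enrichment, computed from inverse-variance-weighted replicate averages.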

Variant | polymerase ribozyme fitness (log ratio)
C4A U112A | 0.26
C3U U7C G48U C70U | -1.98
C3G G60C C86A | -2.81
C3U C86G G110C C124A | -5.57
C4A U9G | -0.689
C3G C40G C72U A121G U130G | -0.331
C3A U9G G17C U54G G69U A105C G117A | -5.55
C4A C15U G61A U87A | -2.75
C4A C13G C49G C88G | -4.57
C4A U7G G69C A90C U112C C123U | -3.35
C3A U32A C64G C99A | -7.73
C4G G61U G93A | -2.57
C4G C49G G60C A119U U133A | -3.77
C3U U55C C89U C115U | -3.75
C3A C53G C64U A118G C123U | -1.11
C4A G42U G69U | -1.62
C3U G47A C62U A105U A118G | -3.83
C4G C40U | -1.78
C4G C40G | -2.02
C3U C11A C73G A75U C99G A103U A121G | -7.22
C4G U21A A24G A46U U125A | -4.02
C4A U9A C64U U96C | -0.963
C3G G17A G120C | -5.46
C4U A43U C56G C89U U112C | -0.836

Variant | polymerase ribozyme fitness (log ratio)
C3U U9G G45A G51U C53G C123A | -5.27
C4G U7C C56U G60U C101A | -6.75
C3A C8A C70G | -3.71
C3U A5G C34U G61C C62G C94U U109A C115U | -6.29
C3G C13U C56A | -2.3
C3A C28U G63C | -3.87
C4G G61C C82G C123U | -3.08
C4A C73G | -2.98
C3U A50G U55G G63A | -1.45
C3U C13U A41G G61U C79A C85U G120U G127C | -3.54
C3U G45C | -2.34
C3U G47A | -0.64
C4U A16G G60C C79A | -4.11
C4A G69A | -4.36
C4U C12G C15G G117C | 0.829
C3U G117U | -2.69
C3U G117A | -1.5
C4A C13U G63C U81A | -2.72
C3U G48C C82G | -1.66
C4G U9C C70U C89U U96A | -3.09
C3U A91U G93C G113C G135U | -3.84
C3U A27G G135U | -5.83
C3G C11G G19U G63A G120A | -5.7
C3U C56G | -0.409

Variant | polymerase ribozyme fitness (log ratio)
C3U A29U U109A | 0.179
C3U C72G A90U U106A | -1.94
C3G C12G C62U | -2.34
C4A A29U G48U G71U U109G | -5.09
C3U G47U A50C | -2.21
C4G U96A G127U | -1.19
C3A C13A C20A A66G G117A | -5.73
C3U C11A U78A | -2.75
C4U C12U C13U G69C C124G | -0.455
C3U U54A A91U | -2.48
C4A A18C C49U C85U C114G | -5.25
C3A G44U G63C | -3.25
C3U C22A A74U G77A U106C C114A | -4.34
C3U C73U A100C | -1.36
C3A G60A U112C | 0.261
C4U C13A A26U U55G C62U | -4.16
C3U C62A C72U | -0.819
C3U G10A G45U A74C U81A | -2.98
C3U C49A G63A C80U G93A | -5.66
C4G A18U | -4.14
C3A G42U G48U G52U C64U C86U G113U U133G | -7.08
C3U C22A U54C C72U C79U C82U A100U | -6.11
C3G G36U C79U C89G C123G U133G | -3.18
C4A A46C C64U C114A C124A U131G | -3.27

Variant | polymerase ribozyme fitness (log ratio)
C4U C49U | -0.875
C4G U14A C73G G120A | -3.16
C3G C22A G69A C124G G128C | -4.83
C3U G57U | -0.67
C3G A6C C49A C53U G61C C97U C101U | -3.42
C3A G36A C64U C123G | -0.723
C3A C85U A90U C114U G127C | -2.77
C3G G42C G44U G63U C123A G128C | -3.73
C4A G48U G61C C89U A121G | -1.77
C3U C72U U106C | -1.21
C3A G25U G58C U59G C97U C123A G135U | -6.86
C3A C64U G71A G110U U129G | -6.8
C4G U9G G61U G120C | 0.941
C3A C114U | -3.65
C4G C12G G61C C79A C82A C124U | -3.71
C3U G36A A50C G120U | -1.14
C3G C102U C123A | -2.99
C3U G19A C53G U87A C124A | -1.53
C4G G63A U106G A118G C123G | -2.77
C3A C8G A37G G93A | -0.343
C4A C40U G61U | -1.92
C3U C4A C53G C88U A90C C123A U130C | -0.356
C3A G120A U130C | 0.403
C3U C13U G57U C79U A100C | -0.594

Variant | polymerase ribozyme fitness (log ratio)
C3G A43U | -3.88
C3A C15U C40U C88U | -3.42
C4G C8U C12A G42A G71A U106A U112G | -4.39
C4A C13A U54G C56A G77A | -4.73
C4G C12A | -1.87
C4G C12G | -1.12
C4U C12G G17C G48A U54C C104A C115G | -2.54
C3U C11G C12A A50U C56G G113U | -6.33
C3U U7A U54C A95G U112A | 0.973
C4G G44U C88A C124A | -1.23
C4A A95C C123G | -1.42
C4U C11G | 0.407
C3A C12A G58A A83C | -2.19
C3U U7C A18C G52A C72U C94A | -4.4
C3A C13U C62U G113U | -4.41
C3A G45U G57U C82U C104A C123A | -4.01
C3U C11U G48A C56U C89G C101U | -3.51
C4A G61A | -1.34
C4A G61U | -1.15
C4A U130G | -1.85
C4G C80U A83C C88U | -5.05
C3U G61U C85U C101A | -2.34
C3A G71C C114G | -4.21
C3G U55C C72U G93A | -4.63

Variant | polymerase ribozyme fitness (log ratio)
C4U A50G G93A G117U A118U | -4.55
C4G C64U U106C C115G | -5.73
C4G C12A C15A C73U C94A C99U G110C | -7.24
C4A A29G C31G A105G A108U A111C C115G C123A | -6.34
C3G C8G C12U C79U G110C U130A | -5.96
C4G C8G C72U A121G | 1.81
C4A C15G | -4.24
C3G C12G C53A G61U C114G | -5.41
C3U U112A | 0.197
C3U A16U G71A | -2.38
C3U A119G | 0.367
C4A C56A C70A C72U U125G | -4.17
C4A C8A C13U G63U A84C | -2.38
C4G C20U G48C G63A C123G | -2.25
C4G C8G A26G G120U | -0.664
C4A G61C A84U | -4.45
C4A C15U G51A C82G C123U | -5.31
C4A C70G G113A U116A | -6.73
C4G G42A | -3.06
C3A C11G G48U C114A | -2.07
C4A A41C C64U | -1.54
C4G G44U U96A A100U | -3.73
C3U C70A U78C A91C C97G A121U | -6.74
C4G U21C G45A U78A C124G | 0.886

Variant | polymerase ribozyme fitness (log ratio)
C4A A37U C72U U78A | -1.52
C4U C34A A90C C114G G135A | -5.15
C4G C12U C56A C70U A111C U126A | -3.03
C3U C13U C34U G69U C85U | -2.76
C4G C49A | -2.14
C3U G93C | -1.09
C3A G39C C72U U92A A111G | -5.51
C4G G110U | -2.64
C3U G23A G39U G48C A68G C99U C114A | -5.71
C4A G113U | -3.74
C3A G48A C72U A84G | -1.58
C3U C53A C56A G69U | -0.204
C3A U33A G48U A121C C124G | -4.93
C3U A43C C73A U87G | -2.3
C4U A41U | -1.8
C4G A18C C22U C72G G93U U109C G117C | -5.69
C3A C124A | -0.333
C4G C79U C104U | -1.62
C4A C124U | -1.17
C4U A18C C53A C88G | -3.41
C3G G47C G52A U87A C124G | -4.41
C4G A5U U55C G113A | -4.56
C3U G113U | -2.47
